Results on two substances are retold here after patent US8530245B2.

The experiment addresses Alexa Fluor-AChR conjugate (acetylcholine receptor purified from Torpedo californica electric organs, labelled with Alexa Fluor 488 or 647) (Torpedo californica) (UniProt P02710). Put plainly: flow cytometry, CD19+ B cells stained with Alexa-AChR.

Substance “B cells (CD19+ or B220+) from CFA+AChR-immunized C57BL/6 mice with EAMG (spleen, lymph node, peripheral blood) (cells without a defined receptor)” displayed a Percent of B cells that were AChR+ (lymph node, mean) of 10.4%.

“B cells from unimmunized naive C57BL/6 mice (cells without a defined receptor)” yielded a Percent of B cells that were AChR+ (lymph node, mean) of 5.6%.
